Results taken from the RNAGym collection of RNA variant scans (doi:10.7554/elife.80360).

B1: Twister Ribozyme (parent)
chain: AACACUGCCAAUGCCGGUCCCAAGCCCGGAUAAAAGUGGAGGGGGCGG

Variants of: B1
Experiment: self-cleavage, relative activity (ratio to wild type); higher = more cleavage; co-transcriptional

Row | Variant | self-cleavage
1 | AACACUGCCAAUGCCGGUCCCAAGCCCAGAUAAAAGUUGAGGGGGCGG | 0.681
2 | AACACUGCCAAUGCCGGUCCCAAGCCCAGAUAAAAGUCGAGGGGGCGG | 0.691
3 | AACACUGCCAAUGCCGGUCCCAAGCCCCGAUAAAAGUGGCGGGGGCGG | 0.179
4 | AACACUGCCAAUGCCGGUCCCAAGCCCCGAUAAAAGUGGGGGGGGCGG | 0.188
5 | AACACUGCCAAUGCCGGUCCCAAGCCCCGAUAAUAGUGGAGGGGGCGG | 0.567
6 | AACACUGCCAAUGCCGGUCCCAAGCCCUGAUAAAAGUGGAGGGGGCCG | 0.287
7 | AACACUGCCAAUGCCGGUCCCAAGCCCUGAUAAAAGUGGCGGGGGCGG | 0.136
8 | AACACUGCCAAUGCCGGUCCCAAGCCCUGAUAAAAGUGGUGGGGGCGG | 0.156
9 | AACACUGCCAAUGCCGGUCCCAAGCCCUGAUAAAAGUGGGGGGGGCGG | 0.155
10 | AACACUGCCAAUGCCGGUCCCAAGCCCUGAUAAAAGUGGAGGGAGCGG | 0.718
11 | AACACUGCCAAUGCCGGUCCCAAGCCCUGAUAAAAGUGGAUGGGGCGG | 0.419
12 | AACACUGCCAAUGCCGGUCCCAAGCCCUGAUAAAAGUGCAGGGGGCGG | 0.15
13 | AACACUGCCAAUGCCGGUCCCAAGCCCUGAUAAAAGUGAAGGGGGCGG | 0.362
14 | AACACUGCCAAUGCCGGUCCCAAGCCCCGAUCAAAGUGGAGGGGGCGG | 0.728
15 | AACACUGCCAAUGCCGGUCCCAAGCCCAGAUAAAAGUGGAGGGGGCGC | 0.94
16 | AACACUGCCAAUGCCGGUCCCAAGCCCAGAUAAAAGUGGAGGGGGCGU | 0.778
17 | AACACUGCCAAUGCCGGUCCCAAGCCCUGUUAAAAGUGGAGGGGGCGG | 0.985
18 | AACACUGCCAAUGCCGGUCCCAAGCCCUGAUAAAAGUGGAGGGGGCGA | 0.726
19 | AACACUGCCAAUGCCGGUCCCAAGCCCUGAUAAAAGUGGAGGGGGCGC | 0.921
20 | AACACUGCCAAUGCCGGUCCCAAGCCCUGAUAAAAGUGGAGGGGGCGU | 0.809
21 | AACACUGCCAAUGCCGGUCCCAAGCCCCGAUAAAAUUGGAGGGGGCGG | 0.101
22 | AACACUGCCAAUGCCGGUCCCAAGCCCCGAUAAAAGUGGAGGCGGCGG | 0.149
23 | AACACUGCCAAUGCCGGUCCCAAGCCCCGAUAAAAGUGGAGGAGGCGG | 0.228
24 | AACACUGCCAAUGCCGGUCCCAAGCCCCGAUAAAAGUGAAGGGGGCGG | 0.445
25 | AACACUGCCAAUGCCGGUCCCAAGCCCCGAUAAAAGUGUAGGGGGCGG | 0.173
26 | AACACUGCCAAUGCCGGUCCCAAGCCUGGAUAAAAGUGGAGGGGCCGG | 0.354
27 | AACACUGCCAAUGCCGGUCCCAAGCCUGGAUAAAAGUGGAGGGGACGG | 0.819

Row | Variant | self-cleavage
28 | AACACUGCCAAUGCCGGUCCCAAGCCCCAAUAAAAGUGGAGGGGGCGG | 1
29 | AACACUGCCAAUGCCGGUCCCAAGCCCUGAUAAAAGUUGAGGGGGCGG | 0.766
30 | AACACUGCCAAUGCCGGUCCCAAGCCCCGAUAAAAGGGGAGGGGGCGG | 0.144
31 | AACACUGCCAAUGCCGGUCCCAAGCCCCGAUAAAAGAGGAGGGGGCGG | 0.241
32 | AACACUGCCAAUGCCGGUCCCAAGCCCAGAUAAAGGUGGAGGGGGCGG | 0.575
33 | AACACUGCCAAUGCCGGUCCCAAGCCCAGAUAAAAGUGGAUGGGGCGG | 0.397
34 | AACACUGCCAAUGCCGGUCCCAAGCCCAGAUAAAAGUGGACGGGGCGG | 0.177
35 | AACACUGCCAAUGCCGGUCCCAAGCCCUGAUAAAAGUGGAGUGGGCGG | 0.238
36 | AACACUGCCAAUGCCGGUCCCAAGCCCUGAUAAAAGUGGAGCGGGCGG | 0.407
37 | AACACUGCCAAUGCCGGUCCCAAGCCCCGAUAAAAGUGGAGGGUGCGG | 0.738
38 | AACACUGCCAAUGCCGGUCCCAAGCCCCGAUAAAAGUGGAGGGCGCGG | 0.666
39 | AACACUGCCAAUGCCGGUCCCAAGCCCCGAUAAAUGUGGAGGGGGCGG | 0.806
40 | AACACUGCCAAUGCCGGUCCCAAGCCCCGAUAAAGGUGGAGGGGGCGG | 0.596
41 | AACACUGCCAAUGCCGGUCCCAAGCCCCGAUAAACGUGGAGGGGGCGG | 0.912
42 | AACACUGCCAAUGCCGGUCCCAAGCCUGGAUAAAAGGGGAGGGGGCGG | 0.342
43 | AACACUGCCAAUGCCGGUCCCAAGCCUGGAUAAAAGCGGAGGGGGCGG | 0.179
44 | AACACUGCCAAUGCCGGUCCCAAGCCCACAUAAAAGUGGAGGGGGCGG | 0.71
45 | AACACUGCCAAUGCCGGUCCCAAGCCCAUAUAAAAGUGGAGGGGGCGG | 0.9
46 | AACACUGCCAAUGCCGGUCCCAAGCCCAGAUAAUAGUGGAGGGGGCGG | 0.497
47 | AACACUGCCAAUGCCGGUCCCAAGCCUGGAUAAAAGUGGAGGGGGCCG | 0.323
48 | AACACUGCCAAUGCCGGUCCCAAGCCUGGAUAAAAGUGGAGGGGGCAG | 0.56
49 | AACACUGCCAAUGCCGGUCCCAAGCCUGGAUAAAAGUGGAGGGGGCUG | 0.632
50 | AACACUGCCAAUGCCGGUCCCAAGCCUGGAUAAAAGUGGAGGGUGCGG | 0.774
51 | AACACUGCCAAUGCCGGUCCCAAGCCCAGAUAAAAGUGGAGAGGGCGG | 0.263
52 | AACACUGCCAAUGCCGGUCCCAAGCCCAGAUAAAAGUGGAGCGGGCGG | 0.272
53 | AACACUGCCAAUGCCGGUCCCAAGCCUGGACAAAAGUGGAGGGGGCGG | 0.651
54 | AACACUGCCAAUGCCGGUCCCAAGCCCGAAUGAAAGUGGAGGGGGCGG | 0.84
